# Test results taken from US11795488B2, “Methods for enzymatic peptide ligation” (NANYANG TECHNOLOGICAL UNIVERSITY, priority 2016, dated 2023).
# Several values for one entry are separate records, joined by “and”; a condition that tells them apart may be missing. Equal values may be shown once.
# B1: OaAEP1: wild type asparaginyl endopeptidase from Oldenlandia affinis, SEQ ID NO:3, weak peptide cyclase (protein, listed as Ovaloparmena affinis)
# chain: MVRYLAGAVLLLVVLSVAAAVSGARDGDYLHLPSEVSRFFRPQETNDDHGEDSVGTRWAVLIAGSKGYANYRHQAGVCHAYQILKRGGLKDENIVVFMYDDIAYNESNPRPGVIINSPHGSDVYAGVPKDYTGEEVNAKNFLAAILGNKSAITGGSGKVVDSGPNDHIFIYYTDHGAAGVIGMPSKPYLYADELNDALKKKHASGTYKSLVFYLEACESGSMFEGILPEDLNIYALTSTNTTESSWCYYCPAQENPPPPEYNVCLGDLFSVAWLEDSDVQNSWYETLNQQYHHVDKRISHASHATQYGNLKLGEEGLFVYMGSNPANDNYTSLDGNALTPSSIVVNQRDADLLHLWEKFRKAPEGSARKEEAQTQIFKAMSHRVHIDSSIKLIGKLLFGIEKCTEILNAVRPAGQPLVDDWACLRSLVGTFETHCGSLSEYGMRHTRTIANICNAGISEEQMAEAASQACASIP
# B2: butelase 1: AEP1 from Clitoria ternatea, Asx peptide ligase extracted from plant, SEQ ID NO:4 (protein, listed as Clitoria ternatea)
# chain: IRDDFLRLPSQASKFFQADDNVEGTRWAVLVAGSKGYVNYRHQADVCHAYQILKKGGLKDENIIVFMYDDIAYNESNPHPGVIINHPYGSDVYKGVPKDYVGEDINPPNFYAVLLANKSALTGTGSGKVLDSGPNDHVFIYYTDHGGAGVLGMPSKPYIAASDLNDVLKKKHASGTYKSIVFYVESCESGSMFDGLLPEDHNIYVMGASDTGESSWVTYCPLQHPSPPPEYDVCVGDLFSVAWLEDCDVHNLQTETFQQQYEVVKNKTIVALIEDGTHVVQYGDVGLSKQTLFVYMGTDPANDNNTFTDKNSLGTPRKAVSQRDADLIHYWEKYRRAPEGSSRKAEAKKQLREVMAHRMHIDNSVKHIGKLLFGIEKGHKMLNNVRPAGLPVVDDWDCFKTLIRTFETHCGSLSEYGMKHMRSFANLCNAGIRKEQMAEASAQACVSIPDNPWSSLHAGFSV
# B3: sortase A: bacterial sortase commonly used to catalyze transpeptidation reactions; recognizes LPXTG (protein, UniProt Q2FV99 1-206, looked up)
# Sortase A: MKKWTNRLMTIAGVVLILVAAYLFAKPHIDNYLHDKDKDEKIEQYDKNVKEQASKDKKQQAKPQIPKDKSKVAGYIEIPDADIKEPVYPGPATPEQLNRGVSFAEENESLDDQNISIAGHTFIDRPNYQFTNLKAAKKGSMVYFKVGNETRKYKMTSIRDVKPTDVGVLDEQKGKDKQLTLITCDDYNEKTGVWEKRKIFVATEVK
# B4: AEP-holo (activated form of OaAEP1, without the C-terminal cap domain) (enzyme)
# chain: SVGTRWAVLIAGSKGYANYRHQAGVCHAYQILKRGGLKDENIVVFMYDDIAYNESNPRPGVIINSPHGSDVYAGVPKDYTGEEVNAKNFLAAILGNKSAITGGSGKVVDSGPNDHIFIYYTDHGAAGVIGMPSKPYLYADELNDALKKKHASGTYKSLVFYLEACESGSMFEGILPEDLNIYALTSTNTTESSWCYYCPAQENPPPPEYNVCLGDLFSVAWLEDSDVQNSWYETLNQQYHHVDKRISHASHATQYGNLKLGEEGLFVYMGSNPANDNYTSLDGNALTPSSIVVNQRDAD
# notes: also called mature OaAEP1
# Assays:
# [1] = test system: peptide substrate "[…]" (SEQ ID NO: 18); experiment: Peptide cyclization assay, kinetic analysis (HPLC/MS); assay type: biochemical; settings: cyclization of GLPVSTKPVATRNGL, 37° C., enzyme 700 nM
# Description: (§1) Native and modified amino acids were purchased from Sigma-Aldrich (USA). All peptides used in this manuscript were synthesized in-house using the solid-phase method and HPLC purified. Cyclization assays were performed in 50-μl reaction mixtures containing 20 mM phosphate buffer, ligases (5 to 700 nM) and peptide substrates (10 to 300 μM). Each reaction was performed in triplicate at 37° C. and quenched by adding 5 μl of 1 M HCl solution. The peptides were separated by using a reversed-phase C18 analytical column (150×2.1 mm, Vydac) with a linear gradient from 10% to 50% acetonitrile over 15 min on a Nexera UHPLC system (Shimadzu). For kinetic analysis, the concentrations of WT OaAEP1, mutant OaAEP1, and butelase 1 were fixed at 700 nM, 50 nM, and 20 nM, respectively. The cyclization velocities were calculated by converting the HPLC-peak areas of remained linear precursors or the cyclized products into concentrations. The identity of each HPLC peak was analyzed by MALDI-TOF MS (ABI 4800 MALDI TOF/TOF). The velocities were input into GraphPad Prism (GraphPad Software, San Diego) to obtain the Michaelis-Menten curve and the kinetic parameters (kcat and Km). Comparison for the cyclization efficiency of various OaAEP1 mutants were performed in a volume of 20 μl of the reaction mixture and analyzed by MALDI-TOF MS after 10 mins or 1 hour ligation reaction.
# The peptide cyclization activity of mature OaAEP1 was then analyzed using MS and the peptide substrate “[…]” (SEQ ID NO: 18) (FIG. 5A). The turn-over rate (kcat) for OaAEP1 is 0.052 s^−1, a value in good agreement with the previous report (Harris, K. S., et al., Nat Commun, 2015. 6: p. 10199). Likewise, the cyclization activity of butelase 1 extracted from plant was measured using the 15 residues peptide “[…]” (SEQ ID NO: 19) (FIG. 5A) leading to a kcat about 90 times faster than OaAEP1 b.
# [2] = test system: ubiquitin and SNAP tag protein; experiment: Ligation of two well-folded proteins; assay type: biochemical
# Description: (a) Fluorescence detection using 02 benzylcytosine-Alexa647 of the SNAP protein and SDS PAGE analysis with Comassie blue staining detection of the protein substrate and ligated products. The reaction is schematically depicted as inset. Cys247Ala ligates well folded protein well. […] (b) As little as 30 nM Cys247Ala catalyze ligation of 100 μM Ubiquitin and 500 μM biotin labelled peptide efficiently in 30 min, at room temperature, in pH 7.4 PBS buffer.
# The ability of Cys247Ala to ligate ubiquitin with a peptide was first tested. The three residues“Asn-Gly-Leu” were added to the C-terminus of ubiquitin to make it recognizable by Cys247Ala. Another peptide having N-terminal residues GlyLeu was used as the add-on component. At a protein: peptide molar ratio of 1:5, Cys247Ala catalyzed the ligation of more than 90% ubiquitin with the peptide within 10 min (FIG. 6). An amount of 30 nM of Cys247Ala was enough for the reaction compared to 10-30 μM of sortase A typically required to perform productive ligations. […] Ubiquitin having the same “Asn-Gly-Leu” modification at its C-terminal end and a N-terminal modified SNAP (NEB) tag protein were used as substrates. […] Protein ligation can be performed within minutes at neutral pH and at room temperature.
# OaAEP1 = experiment: Self-activation (acid-induced self-cleavage) of OaAEP1 and mutants, SDS PAGE; assay type: biochemical, Oldenlandia affinis; settings: activation for 3 hours
# Description: To self-activate OaAEP1, 1 mM EDTA and 0.5 mM Tris (2-carboxyethyl) phosphine hydrochloride were added to the immature protein and the pH of the solution was adjusted to 4 with glacial acetic acid. Fractions containing the protein (as analyzed by SDS-PAGE) were pooled and then incubated for 3 to 16 hours at room temperature or 37° C. Protein precipitation at this pH allowed removal of the bulk of the contaminating proteins by centrifugation. Activated proteins were concentrated by ultracentrifugation using a 50 kDa cutoff concentrator (Sartorius) and stored at −80° C.
# OaAEP1 was cloned and expressed in E. coli as an ubiquitin fusion protein as reported earlier (FIG. 2) (Harris, K. S., et al., Nat Commun, 2015. 6: p. 10199). Using ion exchange and size exclusion chromatography (SEC), sufficient amounts of pure protein suitable for enzymatic and structural analysis were obtained (FIG. 2B). At the neutral pH of purification (pH=7.4), OaAEP1 was mainly present as a heterodimer, where both monomers are in their zymogenic form, but only one monomer had retained in addition the ubiquitin and N-terminal His-tag, while the fusion moiety was cleaved in the other monomer (labeled as “His-Ub-AEP-FL” and “AEP-FL” in FIG. 2B and FIG. 2C). This heterodimer was subjected to crystallization trials for structural studies (see below). In agreement with reference (Harris, K. S., et al., Nat Commun, 2015. 6: p. 10199), activation of OaAEP1 was optimum for pH values in the range of 3.4-4.0 (FIG. 2D). Following activation, OaAEP1 converts to a monomer in solution according to SEC analysis (“AEP-holo” in FIG. 2C). To test the ability of the protein to be activated in trans, the catalytic residue Cys217 was mutated into Ser217.
# Since the crystallization conditions are compatible with OaAEP1 activation, the present crystal structure is likely to have captured one of the conformational states occurring along the activation pathway. To determine whether Gln347 belongs to the segment recognized and cleaved during self-activation, mutagenesis experiments targeting region 346-351 of the OaAEP1 protein were performed (FIG. 4C). The role of Gln347 in OaAEP1 auto-activation was particularly assessed by mutating this residue to Ala, and whether enzyme activation was abolished was examined. Only little impact was found on the mutant enzyme activation (FIG. 4C). Residues Asn346, Asp349 and Asp351 that are next to Gln347 were then targeted. […] Thus, trans-activation requires the presence of at least one of the four Asx/Gln residues (with a slight preference for Asp349 or Asp351) found in this segment of the linker.
# [3] = test system: peptide "[…]" (SEQ ID NO: 19); experiment: Peptide cyclization assay of butelase 1; assay type: biochemical; settings: butelase 1 extracted from plant, peptide GLPVSTKPVATRNHV
# Description: as §1, with “The velocities were input into GraphPad Prism (GraphPad Software, San Diego) to obtain the Michaelis-Menten curve and the kinetic parameters (kcat and Km).” left out
# The peptide cyclization activity of mature OaAEP1 was then analyzed using MS and the peptide substrate “[…]” (SEQ ID NO: 18) (FIG. 5A). […]
# [4] = test system: ubiquitin with C-terminal Asn-Gly-Leu and peptide having N-terminal residues GlyLeu; settings: comparison value; cited from earlier work
# Chain of ubiquitin with C-terminal Asn-Gly-Leu and peptide having N-terminal residues GlyLeu (as listed by the source): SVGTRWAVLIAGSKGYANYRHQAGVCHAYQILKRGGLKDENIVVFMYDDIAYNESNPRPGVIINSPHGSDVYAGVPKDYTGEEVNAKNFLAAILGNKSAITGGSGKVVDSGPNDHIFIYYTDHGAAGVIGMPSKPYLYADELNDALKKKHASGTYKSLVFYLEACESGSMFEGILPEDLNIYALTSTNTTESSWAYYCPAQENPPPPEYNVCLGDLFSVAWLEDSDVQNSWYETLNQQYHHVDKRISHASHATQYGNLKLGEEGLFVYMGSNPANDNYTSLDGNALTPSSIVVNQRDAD
# [5] = target: the molecule itself; experiment: size exclusion chromatography (self-association)
molecule,measurement,setting,value
B1,turn-over rate (kcat),[1],0.052 s⁻¹
same,protein ligation activity (control ligation experiments),[2],but not with the OaAEP1 wild type construct
same,ligation of SNAP tag protein with Ubiquitin,"[2]; 5 μM SNAP tag, 100 nM Cys247Ala, 4000 nM wild type OaAEP1b",not
same,pH optimum of activation,OaAEP1,3.4-4.0 pH and 3.4 to 4 pH
B2,kcat relative to OaAEP1b,[3],about 90 times
B3,amount of enzyme typically required to perform productive ligations,[4],10 to 30 µM
B4,binding result,[5],no binding
